Assay results: the supplement of paper PMC12783771
± gives the standard deviation of the averaged measurements.

Columns and labels:
[1] = sfGFP reporter fluorescence (15 h) (µM FITC); higher = higher leak; settings: library round: Round 0; ligand: none
Method: (§1)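 Cell-free (BL21 Star DE3 extract, PANOx-SP) biosensing: 1 µL Echo-assembled reactions with linear PbrR variant templates (5 nM) and pPbrR-sfGFP reporter, with 1 µM Pb (lead chloride), 30 µM Zn (zinc acetate) or no ligand; endpoint sfGFP fluorescence after 15 h at 30 °C, calibrated as µM FITC. Round 0 library (alanine scan, site saturation, combinatorial) of PbrR from Cupriavidus metallidurans; 2 biological replicates.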

[2] = sfGFP reporter fluorescence (15 h) (µM FITC); higher = stronger transcriptional activation; settings: library round: Round 0
Method: as §1

## MNIQIGELAKRTACPVVTIRFYEQEGLLPPPGRSRGNFRLYGEEHVERLQFIRHCRSLDMPLSDVRTLLSYRKRPDQDCGEVNMLLDEHIRQVESRIGALLELKHHLVELREACSGARPAQSCGILQGLSDCVCDTRGTTAHPSDA [*146A]
[1]
  sfGFP reporter fluorescence: 0.06121 ± 0.00052
[2]; ligand: 1 µM Pb
  sfGFP reporter fluorescence: 0.0918 ± 0.006
[2]; ligand: 30 µM Zn
  sfGFP reporter fluorescence: 0.671 ± 0.0096
